Earlier results, collected in article PMC2721158.

Experiments:
[1] = biological target: linear peptide HDHPQNL (synthetic construct); assay: titration calorimetry
[2] = biological target: linear HPQ peptide FSHPQNT (synthetic construct); assay: titration calorimetry
[3] = biological target: cyclic HPQ peptide … (synthetic construct)

streptavidin, sequence (P22629 25-183): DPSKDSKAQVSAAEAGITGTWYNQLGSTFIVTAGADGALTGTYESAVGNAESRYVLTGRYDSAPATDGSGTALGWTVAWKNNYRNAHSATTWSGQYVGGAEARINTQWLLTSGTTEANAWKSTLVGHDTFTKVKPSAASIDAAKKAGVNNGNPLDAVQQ

streptavidin (from UniProt P22629)
Kd [1]: 282 µM
Kd [2]: 126 µM
Kd [3]: 0.23 µM
